Experimental data: patent US20140072613A1, “Compositions and Methods for Treating Cutaneous Scarring” (priority 2012, published 2014)

Experiments:
Assay in all cases: biochemical
Assay type in all cases: biochemical
[1] = target: T1, 266 human kinases (Homo sapiens, UniProt O00141); conditions: SGK(h); 100 μM
T1 sequence (O00141 1-431): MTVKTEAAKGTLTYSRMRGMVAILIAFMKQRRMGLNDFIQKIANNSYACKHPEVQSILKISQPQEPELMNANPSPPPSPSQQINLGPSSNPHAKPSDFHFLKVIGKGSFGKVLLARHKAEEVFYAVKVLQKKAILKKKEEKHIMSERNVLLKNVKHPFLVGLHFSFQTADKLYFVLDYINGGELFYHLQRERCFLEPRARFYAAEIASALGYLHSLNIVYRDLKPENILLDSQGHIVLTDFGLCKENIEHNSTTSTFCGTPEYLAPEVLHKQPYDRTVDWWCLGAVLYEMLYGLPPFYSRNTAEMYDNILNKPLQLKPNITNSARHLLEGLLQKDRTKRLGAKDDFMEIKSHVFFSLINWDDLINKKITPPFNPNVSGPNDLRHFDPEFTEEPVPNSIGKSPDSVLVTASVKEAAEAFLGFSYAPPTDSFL
Summary of the method: (§1)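 Read-out by scintillation counting of radiolabelled, positively charged substrate bound to negatively charged filter; activity normalised to 100% control. Phosphate transferred from radiolabelled ATP.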

[2] = target: 266 human kinases (Homo sapiens, UniProt P00519, H396P); conditions: Abl(H8396P)(h); 100 μM
Summary of the method: as §1

[3] = target: 266 human kinases (Homo sapiens, UniProt P00519, M351T); conditions: Abl(M351T)(h); 100 μM
Summary of the method: as §1

[4] = target: 266 human kinases (Homo sapiens, UniProt P00519, Y253F); conditions: Abl(Y253F)(h); 100 μM
Summary of the method: as §1

[5] = target: 266 human kinases (Homo sapiens, UniProt Q02750); conditions: MEK1(h); 100 μM
Summary of the method: as §1

[6] = target: 266 human kinases (Homo sapiens, UniProt Q16539); conditions: SAPK2a(h); 100 μM
Chain of 266 human kinases (Homo sapiens, UniProt Q16539) (Q16539 whole entry): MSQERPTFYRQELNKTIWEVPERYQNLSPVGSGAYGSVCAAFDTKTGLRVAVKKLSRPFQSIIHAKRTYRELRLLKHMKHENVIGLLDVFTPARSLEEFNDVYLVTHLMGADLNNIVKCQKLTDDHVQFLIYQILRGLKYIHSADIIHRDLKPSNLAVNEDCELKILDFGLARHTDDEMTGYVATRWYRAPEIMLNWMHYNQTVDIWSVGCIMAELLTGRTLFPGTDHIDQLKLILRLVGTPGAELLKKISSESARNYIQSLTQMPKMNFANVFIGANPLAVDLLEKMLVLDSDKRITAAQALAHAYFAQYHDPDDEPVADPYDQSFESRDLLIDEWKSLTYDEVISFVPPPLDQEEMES
Summary of the method: as §1

[7] = target: T2, 266 human kinases (Homo sapiens, UniProt Q9H2K8); conditions: TAO3(h); 100 μM
T2 sequence (Q9H2K8 1-898): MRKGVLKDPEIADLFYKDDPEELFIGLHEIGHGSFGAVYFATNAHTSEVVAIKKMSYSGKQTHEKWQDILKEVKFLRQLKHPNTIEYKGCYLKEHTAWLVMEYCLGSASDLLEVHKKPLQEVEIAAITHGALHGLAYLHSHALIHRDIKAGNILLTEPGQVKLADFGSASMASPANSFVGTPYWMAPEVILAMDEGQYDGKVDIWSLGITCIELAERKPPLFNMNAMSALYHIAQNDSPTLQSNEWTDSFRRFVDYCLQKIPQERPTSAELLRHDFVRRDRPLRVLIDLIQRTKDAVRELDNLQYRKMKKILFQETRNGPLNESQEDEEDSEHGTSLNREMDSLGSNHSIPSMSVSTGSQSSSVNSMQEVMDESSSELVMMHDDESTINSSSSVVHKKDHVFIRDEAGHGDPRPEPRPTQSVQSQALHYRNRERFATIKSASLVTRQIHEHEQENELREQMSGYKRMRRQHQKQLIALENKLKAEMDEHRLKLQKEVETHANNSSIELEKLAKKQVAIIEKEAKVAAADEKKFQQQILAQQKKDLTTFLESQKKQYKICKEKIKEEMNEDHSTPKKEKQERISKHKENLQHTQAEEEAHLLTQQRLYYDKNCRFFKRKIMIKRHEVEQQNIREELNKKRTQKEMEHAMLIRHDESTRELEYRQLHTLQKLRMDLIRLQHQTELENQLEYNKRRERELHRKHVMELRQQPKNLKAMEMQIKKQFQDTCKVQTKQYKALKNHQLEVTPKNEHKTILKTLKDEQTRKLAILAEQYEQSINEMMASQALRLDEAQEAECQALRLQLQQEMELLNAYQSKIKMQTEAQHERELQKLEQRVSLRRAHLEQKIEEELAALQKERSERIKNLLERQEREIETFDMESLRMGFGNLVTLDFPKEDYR
Summary of the method: as §1

[8] = target: 266 human kinases (Homo sapiens, UniProt Q9H2X6); conditions: HIPK2(h); 100 μM
Chain of 266 human kinases (Homo sapiens, UniProt Q9H2X6) (Q9H2X6 whole entry): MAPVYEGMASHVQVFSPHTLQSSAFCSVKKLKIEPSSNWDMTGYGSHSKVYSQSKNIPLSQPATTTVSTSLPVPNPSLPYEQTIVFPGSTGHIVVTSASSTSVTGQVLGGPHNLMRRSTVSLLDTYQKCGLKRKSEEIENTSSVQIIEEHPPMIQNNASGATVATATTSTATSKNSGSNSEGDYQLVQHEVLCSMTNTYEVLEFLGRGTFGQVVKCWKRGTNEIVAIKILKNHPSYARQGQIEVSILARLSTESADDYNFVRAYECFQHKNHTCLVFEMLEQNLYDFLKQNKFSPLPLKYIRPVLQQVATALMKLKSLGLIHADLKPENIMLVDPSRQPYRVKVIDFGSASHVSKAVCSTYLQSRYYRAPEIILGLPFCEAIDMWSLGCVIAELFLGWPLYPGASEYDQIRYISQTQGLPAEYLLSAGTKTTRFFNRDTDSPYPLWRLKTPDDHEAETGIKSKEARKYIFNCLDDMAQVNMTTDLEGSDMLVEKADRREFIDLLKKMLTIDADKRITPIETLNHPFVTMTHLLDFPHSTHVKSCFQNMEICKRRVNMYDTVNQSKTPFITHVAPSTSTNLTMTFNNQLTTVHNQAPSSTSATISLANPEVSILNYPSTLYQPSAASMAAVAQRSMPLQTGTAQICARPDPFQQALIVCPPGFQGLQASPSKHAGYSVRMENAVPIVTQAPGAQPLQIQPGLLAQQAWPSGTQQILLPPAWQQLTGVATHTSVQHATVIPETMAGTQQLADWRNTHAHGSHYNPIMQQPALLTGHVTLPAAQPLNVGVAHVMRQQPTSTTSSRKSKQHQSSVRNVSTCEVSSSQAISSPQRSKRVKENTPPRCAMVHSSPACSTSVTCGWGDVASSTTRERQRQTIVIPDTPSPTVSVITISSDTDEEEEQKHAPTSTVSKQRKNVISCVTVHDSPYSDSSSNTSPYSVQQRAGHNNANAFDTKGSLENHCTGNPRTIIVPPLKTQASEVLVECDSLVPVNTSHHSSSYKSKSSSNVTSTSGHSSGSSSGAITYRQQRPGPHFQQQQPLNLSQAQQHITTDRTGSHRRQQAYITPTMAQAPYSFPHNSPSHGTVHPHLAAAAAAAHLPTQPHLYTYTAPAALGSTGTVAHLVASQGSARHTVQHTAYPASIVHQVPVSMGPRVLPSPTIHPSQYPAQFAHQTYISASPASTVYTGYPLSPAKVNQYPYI
Summary of the method: as §1

[9] = target: 266 human kinases (Homo sapiens, UniProt Q9H422); conditions: HIPK3(h); 100 μM
Chain of 266 human kinases (Homo sapiens, UniProt Q9H422) (Q9H422 whole entry): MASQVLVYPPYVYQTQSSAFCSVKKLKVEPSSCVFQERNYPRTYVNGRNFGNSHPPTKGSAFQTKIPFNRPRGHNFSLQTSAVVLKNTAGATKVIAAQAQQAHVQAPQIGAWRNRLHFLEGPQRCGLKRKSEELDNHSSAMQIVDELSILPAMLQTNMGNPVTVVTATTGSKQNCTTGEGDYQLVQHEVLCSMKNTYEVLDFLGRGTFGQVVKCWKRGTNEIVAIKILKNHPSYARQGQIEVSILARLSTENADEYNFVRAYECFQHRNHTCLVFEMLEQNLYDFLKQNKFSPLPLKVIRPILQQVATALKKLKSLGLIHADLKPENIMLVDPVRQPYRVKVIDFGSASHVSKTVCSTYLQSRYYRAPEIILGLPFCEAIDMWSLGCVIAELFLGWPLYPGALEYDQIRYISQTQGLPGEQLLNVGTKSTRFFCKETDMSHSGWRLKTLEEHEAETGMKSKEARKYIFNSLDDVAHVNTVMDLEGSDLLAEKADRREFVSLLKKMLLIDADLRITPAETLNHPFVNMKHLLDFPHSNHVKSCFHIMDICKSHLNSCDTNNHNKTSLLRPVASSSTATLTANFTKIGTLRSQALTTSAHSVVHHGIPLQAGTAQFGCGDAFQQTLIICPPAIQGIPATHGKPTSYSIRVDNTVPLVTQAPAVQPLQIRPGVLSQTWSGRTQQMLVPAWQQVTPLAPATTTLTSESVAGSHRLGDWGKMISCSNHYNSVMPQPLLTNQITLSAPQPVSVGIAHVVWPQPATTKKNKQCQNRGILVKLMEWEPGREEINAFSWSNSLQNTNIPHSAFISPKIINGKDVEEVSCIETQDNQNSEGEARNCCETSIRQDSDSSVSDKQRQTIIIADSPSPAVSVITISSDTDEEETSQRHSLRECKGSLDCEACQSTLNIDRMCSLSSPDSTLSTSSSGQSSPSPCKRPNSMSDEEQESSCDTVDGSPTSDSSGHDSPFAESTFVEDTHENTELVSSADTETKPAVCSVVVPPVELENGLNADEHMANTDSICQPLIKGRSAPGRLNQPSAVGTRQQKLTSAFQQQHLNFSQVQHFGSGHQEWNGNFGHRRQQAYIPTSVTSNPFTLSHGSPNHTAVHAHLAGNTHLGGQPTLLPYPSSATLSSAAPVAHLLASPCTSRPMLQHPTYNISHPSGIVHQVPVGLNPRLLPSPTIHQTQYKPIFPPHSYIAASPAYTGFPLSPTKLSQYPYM
Summary of the method: as §1

[10] = target: T3, 266 human kinases (Homo sapiens, UniProt Q9UBE8); conditions: NLK(h); 100 μM
T3 sequence (Q9UBE8 1-527): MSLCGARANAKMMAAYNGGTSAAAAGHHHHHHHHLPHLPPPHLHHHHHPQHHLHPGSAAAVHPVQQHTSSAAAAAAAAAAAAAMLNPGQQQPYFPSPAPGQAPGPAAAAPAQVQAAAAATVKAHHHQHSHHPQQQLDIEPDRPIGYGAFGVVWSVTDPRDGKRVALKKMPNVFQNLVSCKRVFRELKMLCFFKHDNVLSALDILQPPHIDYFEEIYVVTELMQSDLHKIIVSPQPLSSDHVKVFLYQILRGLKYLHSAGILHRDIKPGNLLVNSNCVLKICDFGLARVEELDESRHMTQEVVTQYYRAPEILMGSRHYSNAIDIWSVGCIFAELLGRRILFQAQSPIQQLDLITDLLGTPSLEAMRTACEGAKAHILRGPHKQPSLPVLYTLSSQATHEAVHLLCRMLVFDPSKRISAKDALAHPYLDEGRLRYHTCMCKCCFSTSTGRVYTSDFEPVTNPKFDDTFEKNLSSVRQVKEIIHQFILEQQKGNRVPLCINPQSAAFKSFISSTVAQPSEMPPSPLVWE
Summary of the method: as §1

[11] = target: 266 human kinases (Homo sapiens, UniProt O75914); conditions: PAK3(h); 100 μM
Chain of 266 human kinases (Homo sapiens, UniProt O75914) (O75914 whole entry): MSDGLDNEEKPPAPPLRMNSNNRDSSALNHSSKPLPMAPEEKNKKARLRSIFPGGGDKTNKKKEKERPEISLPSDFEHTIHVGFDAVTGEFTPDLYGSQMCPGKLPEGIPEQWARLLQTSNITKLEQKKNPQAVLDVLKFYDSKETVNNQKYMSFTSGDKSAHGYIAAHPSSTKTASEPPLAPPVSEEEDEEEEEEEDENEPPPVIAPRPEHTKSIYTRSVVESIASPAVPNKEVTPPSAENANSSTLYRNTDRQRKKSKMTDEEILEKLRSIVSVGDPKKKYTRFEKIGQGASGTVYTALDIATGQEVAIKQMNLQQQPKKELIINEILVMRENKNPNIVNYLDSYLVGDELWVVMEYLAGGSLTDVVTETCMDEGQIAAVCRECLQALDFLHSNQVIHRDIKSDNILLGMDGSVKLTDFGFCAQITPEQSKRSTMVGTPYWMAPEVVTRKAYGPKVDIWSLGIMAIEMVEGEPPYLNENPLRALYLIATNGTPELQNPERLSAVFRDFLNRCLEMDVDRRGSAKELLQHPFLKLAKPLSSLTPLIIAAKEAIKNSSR
Summary of the method: as §1

[12] = target: 266 human kinases (Homo sapiens, UniProt P07333, Y969C); conditions: Fms(Y969C)(h); 100 μM
Summary of the method: as §1

[13] = target: 266 human kinases (Homo sapiens, UniProt P53350); conditions: Plk1(h); 100 μM
Chain of 266 human kinases (Homo sapiens, UniProt P53350) (P53350 whole entry): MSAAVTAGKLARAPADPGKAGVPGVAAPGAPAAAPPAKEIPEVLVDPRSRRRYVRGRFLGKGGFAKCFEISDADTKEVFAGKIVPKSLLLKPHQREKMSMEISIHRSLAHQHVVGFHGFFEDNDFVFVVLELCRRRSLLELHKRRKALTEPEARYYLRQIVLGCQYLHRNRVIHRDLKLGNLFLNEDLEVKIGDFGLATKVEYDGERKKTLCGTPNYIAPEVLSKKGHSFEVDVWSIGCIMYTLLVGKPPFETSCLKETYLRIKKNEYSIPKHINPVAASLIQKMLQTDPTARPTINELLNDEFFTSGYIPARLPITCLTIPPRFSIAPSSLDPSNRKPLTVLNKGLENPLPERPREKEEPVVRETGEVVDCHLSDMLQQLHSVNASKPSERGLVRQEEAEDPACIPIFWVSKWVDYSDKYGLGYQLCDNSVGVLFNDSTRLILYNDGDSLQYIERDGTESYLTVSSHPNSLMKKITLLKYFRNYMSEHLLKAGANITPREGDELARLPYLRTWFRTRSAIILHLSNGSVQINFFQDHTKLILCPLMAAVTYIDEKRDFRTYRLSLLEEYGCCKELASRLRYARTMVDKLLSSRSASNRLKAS
Summary of the method: as §1

Row | Sequence | % activity [1] [%] | % activity [2] [%] | % activity [3] [%] | % activity [4] [%] | % activity [5] [%] | % activity [6] [%] | % activity [7] [%] | % activity [8] [%] | % activity [9] [%] | % activity [10] [%] | % activity [11] [%] | % activity [12] [%] | % activity [13] [%]
1 | HRRIKAWLKKIKALARQLGVAA (mammal) [MMI-0500] | 2 | 51 | 61 | 29 | 21 | 52 | 12 | 38 | 85 | 19 |  |  | 
2 | YARAAARQARAKALNRQLGVA (mammal) [MMI-0200] |  |  |  |  |  |  |  |  |  |  | 50 | 88 | 128
